Laboratory results published in US20080181899A1 (Regeneron, published 2008).

Molecular target: T1, hDII3-hFc (human delta-like ligand 3 fused to human Fc) (human, UniProt Q9NYJ7 27-490)
T1 construct: not shown: human Fc
T1 sequence: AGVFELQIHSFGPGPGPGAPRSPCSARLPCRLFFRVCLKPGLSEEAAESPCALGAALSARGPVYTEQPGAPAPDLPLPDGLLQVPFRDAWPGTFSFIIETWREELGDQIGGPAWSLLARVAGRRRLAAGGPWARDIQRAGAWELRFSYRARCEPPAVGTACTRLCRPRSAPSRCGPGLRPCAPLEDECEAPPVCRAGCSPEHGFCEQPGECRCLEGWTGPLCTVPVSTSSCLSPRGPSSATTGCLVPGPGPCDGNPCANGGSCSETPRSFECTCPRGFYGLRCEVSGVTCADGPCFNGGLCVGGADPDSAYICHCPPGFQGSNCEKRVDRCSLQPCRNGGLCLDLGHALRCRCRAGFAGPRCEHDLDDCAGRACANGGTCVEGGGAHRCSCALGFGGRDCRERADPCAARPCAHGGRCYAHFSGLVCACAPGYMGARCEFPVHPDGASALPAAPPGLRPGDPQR
Experiment: OCTET; antibody captured by biotin-anti-hK on streptavidin biosensor
Procedure: Briefly, strepavidin high binding FA biosensors (ForteBio, Inc., Menlo Park, Calif.) were first incubated with biotin-anti-hK at 5 μg/ml for 10 min at 30° C., to achieve saturation. […] Changes in the thickness of the biological layer after each incubation were measured.

binding result: no binding (tested: 200 nM)
B1: 318518-01A10-D8 (antibody, human IgG1)
heavy: not shown
VL: EIVMTQSPATLSLSPGERATLSCRASQSVSSYLAWYQQKPGQAPRLLIYDASNRATGIPARFSGSGSGTDFTLTISSLEPEDFAVYYCQHRSNWPPTFGGGTKVEIK
notes: HCVR 429 with hIgG1 constant region 950; also called REGN281; 318518-1A10-D8
